The target in assay [1] is mouse 4-1BB on activated mouse splenocytes (mouse) (UniProt P20334). Put plainly: flow cytometry on activated mouse splenocytes, gate CD8+ T cells; PE anti-human IgG Fc-gamma F(ab')2; median fluorescence, baseline corrected. (Flow cytometry measures light scatter and fluorescence of single cells or particles in a stream.)
Assay [2] has the same target. The experiment in a line: flow cytometry on activated mouse splenocytes, gate CD4+ T cells; PE anti-human IgG Fc-gamma F(ab')2; median fluorescence, baseline corrected.

We go through one substance from US20200270321A1.

Chain of mouse 4-1BB on activated mouse splenocytes (mouse) (P20334 24-256): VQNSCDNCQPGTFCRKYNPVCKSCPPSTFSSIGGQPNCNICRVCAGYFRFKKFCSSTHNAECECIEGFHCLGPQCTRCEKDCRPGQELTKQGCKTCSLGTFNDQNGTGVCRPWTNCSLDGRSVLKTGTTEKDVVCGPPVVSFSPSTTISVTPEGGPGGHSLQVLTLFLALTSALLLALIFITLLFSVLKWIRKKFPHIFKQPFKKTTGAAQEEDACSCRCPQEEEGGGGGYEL

On to anti-mouse Lob12.3 huIgG1 (antibody), for which the figures for the EC50 (read off the curve) in assay [1] and in assay [2] were 0.1 nM and 0.09 nM, respectively.
